Source: article PMC5673899, “Structural basis for receptor recognition of pollen tube attraction peptides” (Nature Communications, 2017)
Entries after “also recorded” stand apart in the source; their conditions may differ.

What was measured:
SUMO-tagged MDIS1LRR = experiment: Gel filtration assay with SUMO-tagged MDIS1^LRR with or without MIK1^LRR; type: binding; conditions: in the presence or absence of MIK1LRR, peer review file
From the text: We thank the reviewer for his/her high evaluation of our work and constructive […]
We have conducted more experiments including functional analysis of […]
bind to either MIK1 or MIK2 in their binding experiments. Considering the importance of genetic data published by other groups, I recommend that the authors conduct more binding experiments using MDIS1, MDIS2, and mixtures thereof with […]
interaction of AtLURE1.2 with the extracellular LRR domain of MIK1 (MIK1LRR) or MIK2 (MIK2LRR). All the proteins were purified from insect cells. As shown in […]
AtLURE1.2 in the assays, because the AtLURE1.2 and MIK1LRR or MIK2LRR were well separated in gel filtration. This is strikingly different from PRK6LRR with AtLURE1.2, which co-migrated when tested using the same assay. To further test interaction of AtLURE1.2 with MIK1LRR or MIK2LRR, we used ITC to quantify the binding affinity between the insect cell-generated AtLURE1.2 and MIK1LRR or […]
binding of AtLURE1.2 to MIK1LRR or MIK2LRR (Supplementary Fig. 6). In contrast to […]
into the MIK1LRR- or MIK2LRR-containing cell (Supplementary Fig. 6).
We then tested whether LURE1.2 interacts with MIK1LRR or MIK2LRR in the presence of the extracellular LRR domain of MDIS1 (MDIS1LRR). We therefore tried to purify MDIS1LRR from insect cells. However, although several constructs had been tested, expression of MDIS1LRR protein alone was undetectable. […]

[1] = tested on: prk6 pollen tubes transformed with PRK6 D234A; experiment: Gelatin-beads assay, prk6 pollen tubes transformed with D234A PRK6; type: cell-based, Arabidopsis; conditions: beads with 250 nM wild-type AtLURE1.2; 10–23 pollen tubes per assay, three assays
Procedure: (§1) Attraction activities of mutant AtLURE1.2 peptides were examined for semi-in-vivo pollen tubes growing through cut, pollinated pistils by gelatin-beads assay and wavy assay, [20]. For the gelatin-beads assay, pollen tubes were grown on solid pollen germination medium poured into a mold made with 1-mm thick silicone rubber and cover glasses. After hand-pollination, the topside cover glass was removed and the medium was covered with hydrated silicone oil (KF-96–100CS; Shin-Etsu). Attraction of pollen tubes toward the peptide was evaluated using AtLURE1 peptide containing gelatine beads under an inverted microscope (IX71, Olympus) equipped with a micro-manipulator (Narishige). For the AtLURE1-responsive wavy assay, the purified AtLURE1.2 peptide was added to solid pollen germination medium, which was melted at 70 °C and then cooled to a certain degree. The mixture was mixed by vortexing and poured into the mold. Pollen tubes of each genotype were grown through cut styles, as mentioned above. Each peptide (25 μM in 10 mM Bis-Tris (pH 6.0) and 100 mM NaCl) was diluted to 250 nM by cultivation medium in both assays. To examine reactivity of PRK6 mutants to AtLURE1.2, constructs for PRK6 mutants, D234A, N239A, and ΔN239I240, were generated by site-directed mutagenesis from a wild-type PRK6 vector, pPZP221-pPRK6::PRK6-mRuby2 (ref. [20]). […]

[2] = tested on: prk6 pollen tubes transformed with PRK6 ΔN239I240; experiment: Wavy assay, prk6 pollen tubes transformed with ΔN239I240 PRK6; type: cell-based, Arabidopsis; conditions: 250 nM wild-type AtLURE1.2 in medium
Procedure: as §1, with “assays.” for “assays. To examine reactivity of PRK6 mutants to AtLURE1.2, constructs for PRK6 mutants, D234A, N239A, and ΔN239I240, were generated by site-directed mutagenesis from a wild-type PRK6 vector, pPZP221-pPRK6::PRK6-mRuby2 (ref. [20]).”
pollen tubes. Fluorescence is from mRuby2 fused to the C-terminal of PRK6 receptors, showing that all of mutant PRK6 receptors localize normally to the plasma membrane of the pollen tube tip. […]

B1: AtLURE1.2: mature form of AtLURE1.2 (residues 20–90), defensin-like cysteine-rich peptide expressed in insect cells (protein)
chain: TLINGSSDEERTYSFSPTTSPFDPRSLNQELKIGRIGYCFDCARACMRRGKYIRTCSFERKLCRCSISDIK
modifications: left off: His6, N-terminal, cleaved | SUMO, N-terminal, cleaved
notes: mature form of AtLURE1.2 (residues 20–90), defensin-like cysteine-rich peptide expressed in insect cells
- interaction in gel filtration (SUMO-tagged MDIS1LRR): no interaction
- interaction in gel filtration (SUMO-tagged MDIS1LRR; listed as LURE1.2): well separated from the two proteins
- pollen tube attraction [1]: significantly lower than those in wild-type and N239A PRK6 pollen tubes; also recorded: significantly reduced
- wavy and branched pollen tube behavior [2]: branched behavior is not observed; also recorded: greatly compromised
